Measurements as given in patent publication US20180022822A1, “NOVEL ANTI-FIBROBLAST ACTIVATION PROTEIN (FAP) BINDING AGENTS AND USES THEREOF” (Mabimmune Diagnostics AG, priority 2016, published 2018).

Test system: MOPC315.BM multiple myeloma cells and tumor stroma
Test: immunofluorescence on murine multiple myeloma bone tissue
Parameters: species or system mouse
Conditions: Cy5 labelled antibody, bone sections
Experimental: BALB/c mice were injected with 2×10^6 of the murine multiple myeloma cell line […] intravenously. BALB/c mice were injected with a vehicle-only control. Bone tissue was harvested and fixed in 4% PFA, decalcified in 10% EDTA (pH 7.4), embedded in paraffin before being sectioned (4 μm) and rehydrated. Then, CD138 mAb (Clone 281-2, BD Pharmingen) and Cy5 labelled NI-206.82C2 were used to identify MOPC315.BM.Luc cell infiltration, and NI-206.82C2 binding to these cells and surrounding stromal cells in the tissue sections. Stained tissue sections were then imaged using a fluorescent microscope (FIG. 13).

B1: NI-206.82C2: human-derived recombinant anti-FAP antibody; VH SEQ ID NO: 2 or 4 (PIMC), VL SEQ ID NO: 6 (antibody, V domains shown)
VH: QVQLQQSGPGLVKPSQTLSLTCAISGDSVSSNSVTWNWIRQSPSRGLEWLGRTYYRSKWYNDYAVSVKGRITINPDTSKNQFYLQLKSVTPEDAAVYYCARDSSILYGDYWGQGTLVTVSS
VL: QAVLTQPSSLSASPGASASLTCTLPSGINVGTYRIFWFQQKPGSPPQYLLSYKSDSDNHQGSGVPSRFSGSKDASANAGILLISGLQSEDEADYYCMIWHSSAWVFGGGTKLTVL
binding in the syngeneic MOPC315.BM mouse model: binds to multiple myeloma cells and tumor stroma
